From paper PMC12559291
Several values for one entry are separate records, joined by “and”; a condition that tells them apart may be missing. Equal values may be shown once.

Assays:
[1] = biological target: galectin-3 (Gal3), human recombinant, made as Gal3-TEV-6xHis and freed of the tag by TEV protease (human) (UniProt P17931); test: negative stain EM; lactose-washed RPE-1 cells with exogenous Gal3 (50 μg/mL) for 30 min at 4 °C; surface-bound Gal3 eluted with I3; 2D classification of the eluted particles in cryoSPARC
[2] = biological target: galectin-3 (Gal3), human recombinant, made as Gal3-TEV-6xHis and freed of the tag by TEV protease (human) (UniProt P17931); test: negative stain EM; Gal3 or Gal3∆Nter (4 μM, 2 h at 21 °C) on inactive rat α5β1 integrin in nanodiscs held on cobalt beads, washed, eluted with 50 μM I3; the eluted particles counted as monomers or ring-shaped oligomers
[3] = biological target: α5β1 integrin purified from rat liver (rat) (UniProt P49134); test: cryo-EM structure; rat α5β1 integrin in peptidiscs on cobalt beads, sialidase-treated, 4 μM Gal3 for 2 h at 21 °C, eluted with 10 mM EDTA and vitrified at once; 6.9 Å
[4] = biological target: α5β1 integrin purified from rat liver (rat) (UniProt P49134); test: single-molecule photobleaching (TIRF); sialidase-treated rat α5β1 integrin in biotinylated peptidiscs complexed with 4 μM Gal3-Cy3 on cobalt beads, eluted with EDTA, immobilised on neutravidin-coated glass; 21 °C
[5] = biological target: α5β1 integrin purified from rat liver (rat) (UniProt P49134); test: cryo-EM structure; rat α5β1 integrin in GSL-containing nanodiscs on cobalt beads, sialidase-treated, 4 μM Gal3 for 2 h at 21 °C, eluted with 10 mM EDTA and vitrified at once; three subsets at 7.4, 8.5 and 7.6 Å; Gal3 CRDs (PDB 1KJL) fitted as rigid bodies
[6] = biological target: galectin-3 (Gal3), human recombinant, made as Gal3-TEV-6xHis and freed of the tag by TEV protease (human) (UniProt P17931); test: as above

percent of oligomer particles classed as dimers [1]: 37%
percent of oligomer particles classed as tetramers [1]: 22%
percent of oligomer particles classed as trimers [1]: 41%
stoichiometry N [1]: 2 and 3 and 4
percent of eluted Gal3 particles that are ring-shaped oligomers [2]: 40%
stoichiometry N [3]: 2
stoichiometry N [4]: < 4
stoichiometry N [5]: 2 and 3 and 4
stoichiometry N [6]: 2 and 3 and 4
Substance: galectin-3 (Gal3), human recombinant, made as Gal3-TEV-6xHis and freed of the tag by TEV protease (from UniProt P17931 1-250) (natural protein)
